According to patent US20090075297A1 (SCHERING, published 2009):
No end group written: not given here.

Experiments:
[1] = molecular target: T1, rat GalR3 receptor (rat, UniProt O88626 1-370); test: competition with 0.3 nM 125I-porcine galanin on membranes of COS-7 cells transfected with rat GalR3; filtration; Cheng-Prusoff
T1 construct: Full-length receptor (370 amino acids) expressed from pCR3.1 in COS-7 cells; The assay used membrane preparations of the transfected cells; also called rat type 3 galanin receptor; cellular receptors
T1 chain: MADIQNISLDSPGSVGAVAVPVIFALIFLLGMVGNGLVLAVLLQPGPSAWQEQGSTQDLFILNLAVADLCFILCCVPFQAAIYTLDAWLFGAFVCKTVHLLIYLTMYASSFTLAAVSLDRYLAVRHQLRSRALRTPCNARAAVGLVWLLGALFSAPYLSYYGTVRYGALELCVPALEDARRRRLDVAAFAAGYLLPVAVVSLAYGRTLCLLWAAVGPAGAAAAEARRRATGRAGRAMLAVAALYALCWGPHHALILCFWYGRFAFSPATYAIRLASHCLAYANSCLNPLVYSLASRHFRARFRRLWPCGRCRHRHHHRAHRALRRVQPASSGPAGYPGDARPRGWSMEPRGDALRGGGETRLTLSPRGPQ
Protocol: (§1) Binding of ¹²⁵I-porcine-galanin to the membrane preparations was performed in a buffer containing 25 mM Tris-Cl (pH7.4), 1% bovine serum albumin (w/v), 0.1% bacitracin, 2 μg/ml leupeptin and 10 mM MgCl₂. Ligand saturation plots were performed using 20 μg amounts of the membrane protein in a total volume of 200 μl using 3 μM cold galanin to determine nonspecific binding. Peptide competition studies were performed in a total volume of 200 μl, containing 20 μg of membrane protein and 0.3 nM ¹²⁵I-porcine galanin. Incubations were carried out at room temperature for 1 hour and were terminated by rapid vacuum filtration through MULTISCREEN FB (glass fiber B) Filter Plates (Millipore, Bedford, Mass.) which had been pre-treated with 0.30% polyethylenimine to prevent non-specific binding of the radioligand to the filter. The filters were then washed three times with 100 μl of PBS (pH7.4). All data were analyzed using non-linear regression software (Prism, GraphPad, San Diego, Calif.), and the Ki was calculated using the method of Cheng and Prusoff [Biochem. Pharmacol. 22:3099-3108 (1973)].
The curves shown indicate the fits of the data points by nonlinear regression for one-site binding.

[2] = molecular target: T1, rat GalR3 receptor; test: radioligand binding to membranes of COS-7 cells transfected with rat GalR3
Protocol: as §1

For TLNSAGYLLGPHAIDNHRSFSDKHGLT (peptide, UniProt P10683 35-61, looked up, range 3-29) [rat galanin(3-29)], the Ki [1] was greater than 1 µM.

B1: 125I-porcine galanin (ligand, UniProt P07480 33-61, looked up)
peptide: GWTLNSAGYLLGPHAIDNHRSFHDKYGLA
modifications: ends and bridges not checked; also: 125I radiolabel, residue not given here
notes: Bought radioligand; also called labeled galanin
B1: binds [2].

GWTLNSAGYLLGPHAIDNHRSFSDKHGLT (ligand, UniProt P10683 33-61, looked up, also called galanin itself) [rat galanin] gave a Ki [1] of 0.0012 µM.

B2: rat galanin(2-29) (peptide, UniProt P10683 34-61, looked up)
peptide: WTLNSAGYLLGPHAIDNHRSFSDKHGLT
notes: range 2-29; also called Rat galanin 92-29
B2 was tested, and the Ki [1] was 0.014 µM.

Binder LLGPHAIDNHR [galanin(10-20)] has a Ki [1] greater than 1 µM.
